Among the data in patent US20040058369A1 are induction of reporter activity in HEK293 cells co-transfected with αRXR, effector and reporter, compared to the untreated cells and reporter activity with αRXR co-transfected, compared to cells transfected with effector and reporter alone values, retold here.

The target of the assay is αRXR co-transfected into HEK293 cells. The assay is described as follows: cell-based or functional assay.

Regarding “Heliothis virescens ecdysone receptor (HEcR) as expressed from effector plasmid pcDNA3H3KHEcR”, the induction of reporter activity in HEK293 cells co-transfected with αRXR, effector and reporter, compared to the untreated cells was 9 fold; the reporter activity with αRXR co-transfected, compared to cells transfected with effector and reporter alone came to 4 fold.
